The supplement of paper PMC5998384

Experiments:
HeLa Kyoto [1] = experiment: solubility change mitosis vs G1/S (difference of NP-40 vs SDS log2 ratios) (log2 ratio difference); higher = more soluble in mitosis
HeLa Kyoto [2] = experiment: solubility in G1/S (NP-40 vs SDS abundance) (log2 ratio); higher = more soluble; conditions: cell cycle stage: G1/S
HeLa Kyoto [3] = experiment: melting temperature (median over replicates), in situ; higher = more thermally stable
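For melting temperature (median over replicates), in situ in this document: HeLa Kyoto cells synchronized by double thymidine or nocodazole block, proteins quantified by TMT10plex mass spectrometry, three independent biological replicates.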
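For solubility change mitosis vs G1/S (difference of NP-40 vs SDS log2 ratios) in this document: synchronized HeLa Kyoto cells (double thymidine block for G1/S, nocodazole release for mitosis), protein amounts in NP-40 versus SDS lysates quantified by mass spectrometry, three biological replicates.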
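For solubility in G1/S (NP-40 vs SDS abundance) in this document: HeLa Kyoto cells arrested at G1/S by double thymidine block, proteins quantified by TMT10plex mass spectrometry in mild NP-40 versus SDS extracts, three biological replicates.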

Sequence: MPVVWPTLLDLSRDECKRILRKLELEAYAGVISALRAQGDLTKEKKDLLGELSKVLSISTERHRAEVRRAVNDERLTTIAHNMSGPNSSSEWSIEGRRLVPLMPRLVPQTAFTVTANAVANAAIQHNASLPVPAETGSKEVVCYSYTSTTSTPTSTPVPSGSIATVKSPRPASPASNVVVLPSGSTVYVKSVSCSDEDEKPRKRRRTNSSSSSPVVLKEVPKAVVPVSKTITVPVSGSPKMSNIMQSIANSLPPHMSPVKITFTKPSTQTTNTTTQKVIIVTTSPSSTFVPNILSKSHNYAAVTKLVPTSVIASTTQKPPVVITASQSSLVSNSSSGSSSSTPSPIPNTVAVTAVVSSTPSVVMSTVAQGVSTSAIKMASTRLPSPKSLVSAPTQILAQFPKQHQQSPKQQLYQVQQQTQQQVAQPSPVSHQQQPQQSPLPPGIKPTIQIKQESGVKIITQQVQPSKILPKPVTATLPTSSNSPIMVVSSNGAIMTTKLVTTPTGTQATYTRPTVSPSIGRMAATPGAATYVKTTSGSIITVVPKSLATLGGKIISSNIVSGTTTKITTIPMTSKPNVIVVQKTTGKGTTIQGLPGKNVVTTLLNAGGEKTIQTVPTGAKPAILTATRPITKMIVTQPKGIGSTVQPAAKIIPTKIVYGQQGKTQVLIKPKPVTFQATVVSEQTRQLVTETLQQASRVAEAGNSSIQEGKEEPQNYTDSSSSSTESSQSSQDSQPVVHVIASRRQDWSEHEIAMETSPTIIYQDVSSESQSATSTIKALLELQQTTVKEKLESKPRQPTIDLSQMAVPIQMTQEKRHSPESPSIAVVESELVAEYITTERTDEGTEVAFPLLVSHRSQPQQPSQPQRTLLQHVAQSQTATQTSVVVKSIPASSPGAITHIMQQALSSHTAFTKHSEELGTEEGEVEEMDTLDPQTGLFYRSALTQSQSAKQQKLSQPPLEQTQLQVKTLQCFQTKQKQTIHLQADQLQHKLPQMPQLSIRHQKLTPLQQEQAQPKPDVQHTQHPMVAKDRQLPTLMAQPPQTVVQVLAVKTTQQLPKLQQAPNQPKIYVQPQTPQSQMSLPASSEKQTASQVEQPIITQGSSVTKITFEGRQPPTVTKITGGSSVPKLTSPVTSISPIQASEKTAVSDILKMSLMEAQIDTNVEHMIVDPPKKALATSMLTGEAGSLPSTHMVVAGMANSTPQQQKCRESCSSPSTVGSSLTTRKIDPPAVPATGQFMRIQNVGQKKAEESPAEIIIQAIPQYAIPCHSSSNVVVEPSGLLELNNFTSQQLDDEETAMEQDIDSSTEDGTEPSPSQSSAERS [EMSY]
- solubility change mitosis (log2) (HeLa Kyoto [1]): 0.0269
- solubility in G1/S (log2) (HeLa Kyoto [2]): -0.0948
- melting temperature (HeLa Kyoto [3]; cell cycle stage: G1/S): 44.6 °C
- melting temperature (HeLa Kyoto [3]; cell cycle stage: mitosis): 50.6 °C

Sequence: MADDFGFFSSSESGAPEAAEEDPAAAFLAQQESEIAGIENDEGFGAPAGSHAAPAQPGPTSGAGSEDMGTTVNGDVFQEANGPADGYAAIAQADRLTQEPESIRKWREEQRKRLQELDAASKVTEQEWREKAKKDLEEWNQRQSEQVEKNKINNRIADKAFYQQPDADIIGYVASEEAFVKESKEETPGTEWEKVAQLCDFNPKSSKQCKDVSRLRSVLMSLKQTPLSR [CLTB]
- solubility change mitosis (log2) (HeLa Kyoto [1]): 0.651
- solubility in G1/S (log2) (HeLa Kyoto [2]): 0.159
- melting temperature (HeLa Kyoto [3]; cell cycle stage: G1/S): 56.3 °C
- melting temperature (HeLa Kyoto [3]; cell cycle stage: mitosis): 53.3 °C

Sequence: MNGEEEFFDAVTGFDSDNSSGEFSEANQKVTGMIDLDTSKNNRIGKTGERPSQENGIQKHRTSLPAPMFSRSDFSVWTILKKCVGLELSKITMPIAFNEPLSFLQRITEYMEHVYLIHRASCQPQPLERMQSVAAFAVSAVASQWERTGKPFNPLLGETYELIREDLGFRFISEQVSHHPPISAFHSEGLNHDFLFHGSIYPKLKFWGKSVEAEPRGTITLELLKHNEAYTWTNPTCCVHNVIIGKLWIEQYGTVEILNHRTGHKCVLHFKPCGLFGKELHKVEGHIQDKNKKKLFMIYGKWTECLWGIDPVSYESFKKQERRGDHLRKAKLDEDSGKADSDVADDVPVAQETVQVIPGSKLLWRINTRPPNSAQMYNFTSFTVSLNELETGMEKTLPPTDCRLRPDIRGMENGNMDLASQEKERLEEKQREARRERAKEEAEWQTRWFYPGNNPYTGTPDWLYAGDYFERNFSDCPDIY [OSBPL2]
- solubility change mitosis (log2) (HeLa Kyoto [1]): -0.108
- solubility in G1/S (log2) (HeLa Kyoto [2]): -0.0421
- melting temperature (HeLa Kyoto [3]; cell cycle stage: G1/S): 48.1 °C
- melting temperature (HeLa Kyoto [3]; cell cycle stage: mitosis): 48.6 °C

Sequence: MAQKRPACTLKPECVQQLLVCSQEAKKSAYCPYSHFPVGAALLTQEGRIFKGCNIENACYPLGICAERTAIQKAVSEGYKDFRAIAIASDMQDDFISPCGACRQVMREFGTNWPVYMTKPDGTYIVMTVQELLPSSFGPEDLQKTQ [CDA]
- solubility change mitosis (log2) (HeLa Kyoto [1]): -0.0534
- solubility in G1/S (log2) (HeLa Kyoto [2]): 0.37
- melting temperature (HeLa Kyoto [3]; cell cycle stage: G1/S): 54.4 °C
- melting temperature (HeLa Kyoto [3]; cell cycle stage: mitosis): 54 °C
